# Assay results as given in paper PMC7418704 (2020).
# Target: Monomeric human ACE2 (19-615), Fc tag removed by thrombin (human, UniProt Q9BYF1 19-615)
# Assay: BLI
# Sequence of Monomeric human ACE2 (19-615), Fc tag removed by thrombin (Q9BYF1 19-615): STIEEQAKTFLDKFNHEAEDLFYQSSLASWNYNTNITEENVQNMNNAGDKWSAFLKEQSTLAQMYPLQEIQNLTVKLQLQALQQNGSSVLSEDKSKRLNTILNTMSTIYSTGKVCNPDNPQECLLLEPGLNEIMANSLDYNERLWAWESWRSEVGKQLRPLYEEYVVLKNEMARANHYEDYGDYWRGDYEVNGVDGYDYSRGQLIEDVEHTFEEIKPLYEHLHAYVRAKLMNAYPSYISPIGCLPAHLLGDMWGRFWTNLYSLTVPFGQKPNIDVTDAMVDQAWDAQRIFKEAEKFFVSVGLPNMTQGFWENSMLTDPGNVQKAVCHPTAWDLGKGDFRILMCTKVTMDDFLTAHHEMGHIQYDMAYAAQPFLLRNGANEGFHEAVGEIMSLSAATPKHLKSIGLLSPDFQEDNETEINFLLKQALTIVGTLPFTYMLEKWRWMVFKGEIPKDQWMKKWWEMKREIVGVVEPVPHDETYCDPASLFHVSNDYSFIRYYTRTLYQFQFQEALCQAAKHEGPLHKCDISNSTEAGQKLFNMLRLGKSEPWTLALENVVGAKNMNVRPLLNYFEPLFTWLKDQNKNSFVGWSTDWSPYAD
binder,measurement,value
"SARS-CoV-1 RBD (306-575), mammalian-expressed, purified (domain or fragment) not shown",Kd,575 nM
